Measured values published in the supplement of paper PMC5998384.

Experiments:
HeLa Kyoto [1] = experiment: thermal stability score vs G1/S (z-score of summed log2 fold changes over temperatures); higher = more thermally stable than in G1/S
HeLa Kyoto [2] = experiment: melting temperature (median over replicates), in situ; higher = more thermally stable
[3] = cell cycle stage: early G1 (4.5 h after nocodazole release)
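Throughout, for melting temperature (median over replicates), in situ: HeLa Kyoto cells synchronized by double thymidine or nocodazole block, proteins quantified by TMT10plex mass spectrometry, three independent biological replicates.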
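Throughout, for thermal stability score vs G1/S (z-score of summed log2 fold changes over temperatures): synchronized HeLa Kyoto cells, proteins quantified by TMT10plex mass spectrometry, three biological replicates, mitosis taken 0.5 h after nocodazole release, G1/S directly after double thymidine block.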

| Sequence | thermal stability score (HeLa Kyoto [1]; [3]) | thermal stability score (HeLa Kyoto [1]; cell cycle stage: mitosis) | melting temperature (HeLa Kyoto [2]; cell cycle stage: G1/S) [°C] | melting temperature (HeLa Kyoto [2]; cell cycle stage: mitosis) [°C] |
| --- | --- | --- | --- | --- |
| MSEDEEKVKLRRLEPAIQKFIKIVIPTDLERLRKHQINIEKYQRCRIWDKLHEEHINAGRTVQQLRSNIREIEKLCLKVRKDDLVLLKRMIDPVKEEASAATAEFLQLHLESVEELKKQFNDEETLLQPPLTRSMTVGGAFHTTEAEASSQSLTQIYALPEIPQDQNAAESWETLEADLIELSQLVTDFSLLVNSQQEKIDSIADHVNSAAVNVEEGTKNLGKAAKYKLAALPVAGALIGGMVGGPIGLLAGFKVAGIAAALGGGVLGFTGGKLIQRKKQKMMEKLTSSCPDLPSQTDKKCS [STX17] | -0.17 | 0.13 |  |  |
| MAKVSVLNVAVLENPSPFHSPFRFEISFECSEALADDLEWKIIYVGSAESEEFDQILDSVLVGPVPAGRHMFVFQADAPNPSLIPETDAVGVTVVLITCTYHGQEFIRVGYYVNNEYLNPELRENPPMKPDFSQLQRNILASNPRVTRFHINWDNNMDRLEAIETQDPSLGCGLPLNCTPIKGLGLPGCIPGLLPENSMDCI [ASF1B] | -3.88 | -1.16 |  |  |
| MSKMPAKKKSCFQITSVTTAQVATSITEDTESLDDPDESRTEDVSSEIFDVSRATDYGPEEVCERSSSEETLNNVGDAETPGTVSPNLLLDGQLAAAAAAPANGGGVVSARSVSGALASTLAAAATSAPAPGAPGGPQLAGSSAGPVTAAPSQPPTTCSSRFRVIKLDHGSGEPYRRGRWTCMEYYERDSDSSVLTRSGDCIRHSSTFDQTAERDSGLGATGGSVVVVVASMQGAHGPESGTDSSLTAVSQLPPSEKMSQPTPAQPQSFSVGQPQPPPPPVGGAVAQSSAPLPPFPGAATGPQPMMAAAQPSQPQGAGPGGQTLPPTNVTLAQPAMSLPPQPGPAVGAPAAQQPQQFAYPQPQIPPGHLLPVQPSGQSEYLQQHVAGLQPPSPAQPSSTGAAASPATAATLPVGTGQNASSVGAQLMGASSQPSEAMAPRTGPAQGGQVAPCQPTGVPPATVGGVVQPCLGPAGAGQPQSVPPPQMGGSGPLSAVPGGPHAVVPGVPNVPAAVPAPSVPSVSTTSVTMPNVPAPLAQSQQLSSHTPVSRSSSIIQHVGLPLAPGTHSAPTSLPQSDLSQFQTQTQPLVGQVDDTRRKSEPLPQPPLSLIAENKPVVKPPVADSLANPLQLTPMNSLATSVFSIAIPVDGDEDRNPSTAFYQAFHLNTLKESKSLWDSASGGGVVAIDNKIEQAMDLVKSHLMYAVREEVEVLKEQIKELVERNSLLERENALLKSLSSNDQLSQLPTQQANPGSTSQQQAVIAQPPQPTQPPQQPNVSSA [TSC22D2] | 0.461 | 0.468 |  |  |
| MLLLVTSLLLCELPHPAFLLIPEKSDLRTVAPASSLNVRFDSRTMNLSWDCQENTTFSKCFLTDKKNRVVEPRLSNNECSCTFREICLHEGVTFEVHVNTSQRGFQQKLLYPNSGREGTAAQNFSCFIYNADLMNCTWARGPTAPRDVQYFLYIRNSKRRREIRCPYYIQDSGTHVGCHLDNLSGLTSRNYFLVNGTSREIGIQFFDSLLDTKKIERFNPPSNVTVRCNTTHCLVRWKQPRTYQKLSYLDFQYQLDVHRKNTQPGTENLLINVSGDLENRYNFPSSEPRAKHSVKIRAADVRILNWSSWSEAIEFGSDDGNLGSVYIYVLLIVGTLVCGIVLGFLFKRFLRIQRLFPPVPQIKDKLNDNHEVEDEIIWEEFTPEEGKGYREEVLTVKEIT [CSF2RA] | -1.1 | -1.35 |  |  |
| MARKALKLASWTSMALAASGIYFYSNKYLDPNDFGAVRVGRAVATTAVISYDYLTSLKSVPYGSEEYLQLRSKSWPVFLQVHLRSARRLCELCCANRGTFIKVGQHLGALDYLLPEEYTSTLKVLHSQAPQSSMQEIRQVIREDLGKEIHDLFQSFDDTPLGTASLAQVHKAVLHDGRTVAVKVQHPKVRAQSSKDILLMEVLVLAVKQLFPEFEFMWLVDEAKKNLPLELDFLNEGRNAEKVSQMLRHFDFLKVPRIHWDLSTERVLLMEFVDGGQVNDRDYMERNKIDVNEISRHLGKMYSEMIFVNGFVHCDPHPGNVLVRKHPGTGKAEIVLLDHGLYQMLTEEFRLNYCHLWQSLIWTDMKRVKEYSQRLGAGDLYPLFACMLTARSWDSVNRGISQAPVTATEDLEIRNNAANYLPQISHLLNHVPRQMLLILKTNDLLRGIEAALGTRASASSFLNMSRCCIRALAEHKKKNTCSFFRRTQISFSEAFNLWQINLHELILRVKGLKLADRVLALICWLFPAPL [ADCK1] | 0.277 | -0.197 |  |  |
| MLRCGGRGLLLGLAVAAAAVMAARLMGWWGPRAGFRLFIPEELSRYRGGPGDPGLYLALLGRVYDVSSGRRHYEPGSHYSGFAGRDASRAFVTGDCSEAGLVDDVSDLSAAEMLTLHNWLSFYEKNYVCVGRVTGRFYGEDGLPTPALTQVEAAITRGLEANKLQLQEKQTFPPCNAEWSSARGSRLWCSQKSGGVSRDWIGVPRKLYKPGAKEPRCVCVRTTGPPSGQMPDNPPHRNRGDLDHPNLAEYTGCPPLAITCSFPL [CYB5D2] | 0.86 | -0.244 |  |  |
| MCFSFIMPPAMADILDIWAVDSQIASDGSIPVDFLLPTGIYIQLEVPREATISYIKQMLWKQVHNYPMFNLLMDIDSYMFACVNQTAVYEELEDETRRLCDVRPFLPVLKLVTRSCDPGEKLDSKIGVLIGKGLHEFDSLKDPEVNEFRRKMRKFSEEKILSLVGLSWMDWLKQTYPPEHEPSIPENLEDKLYGGKLIVAVHFENCQDVFSFQVSPNMNPIKVNELAIQKRLTIHGKEDEVSPYDYVLQVSGRVEYVFGDHPLIQFQYIRNCVMNRALPHFILVECCKIKKMYEQEMIAIEAAINRNSSNLPLPLPPKKTRIISHVWENNNPFQIVLVKGNKLNTEETVKVHVRAGLFHGTELLCKTIVSSEVSGKNDHIWNEPLEFDINICDLPRMARLCFAVYAVLDKVKTKKSTKTINPSKYQTIRKAGKVHYPVAWVNTMVFDFKGQLRTGDIILHSWSSFPDELEEMLNPMGTVQTNPYTENATALHVKFPENKKQPYYYPPFDKIIEKAAEIASSDSANVSSRGGKKFLPVLKEILDRDPLSQLCENEMDLIWTLRQDCREIFPQSLPKLLLSIKWNKLEDVAQLQALLQIWPKLPPREALELLDFNYPDQYVREYAVGCLRQMSDEELSQYLLQLVQVLKYEPFLDCALSRFLLERALGNRRIGQFLFWHLRSEVHIPAVSVQFGVILEAYCRGSVGHMKVLSKQVEALNKLKTLNSLIKLNAVKLNRAKGKEAMHTCLKQSAYREALSDLQSPLNPCVILSELYVEKCKYMDSKMKPLWLVYNNKVFGEDSVGVIFKNGDDLRQDMLTLQMLRLMDLLWKEAGLDLRMLPYGCLATGDRSGLIEVVSTSETIADIQLNSSNVAAAAAFNKDALLNWLKEYNSGDDLDRAIEEFTLSCAGYCVASYVLGIGDRHSDNIMVKKTGQLFHIDFGHILGNFKSKFGIKRERVPFILTYDFIHVIQQGKTGNTEKFGRFRQCCEDAYLILRRHGNLFITLFALMLTAGLPELTSVKDIQYLKDSLALGKSEEEALKQFKQKFDEALRESWTTKVNWMAHTVRKDYRS [PIK3CB] | 0.304 | 0.592 |  |  |
| MGSQGSPVKSYDYLLKFLLVGDSDVGKGEILESLQDGAAESPYAYSNGIDYKTTTILLDGRRVKLELWDTSGQGRFCTIFRSYSRGAQGILLVYDITNRWSFDGIDRWIKEIDEHAPGVPRILVGNRLHLAFKRQVPTEQARAYAEKNCMTFFEVSPLCNFNVIESFTELSRIVLMRHGMEKIWRPNRVFSLQDLCCRAIVSCTPVHLIDKLPLPVTIKSHLKSFSMANGMNAVMMHGRSYSLASGAGGGGSKGNSLKRSKSIRPPQSPPQNCSRSNCKIS [RAB40C] | -0.589 | -0.612 |  |  |
| MFPREKTWNISFAGCGFLGVYYVGVASCLREHAPFLVANATHIYGASAGALTATALVTGVCLGEAGAKFIEVSKEARKRFLGPLHPSFNLVKIIRSFLLKVLPADSHEHASGRLGISLTRVSDGENVIISHFNSKDELIQANVCSGFIPVYCGLIPPSLQGVRYVDGGISDNLPLYELKNTITVSPFSGESDICPQDSSTNIHELRVTNTSIQFNLRNLYRLSKALFPPEPLVLREMCKQGYRDGLRFLQRNGLLNRPNPLLALPPARPHGPEDKDQAVESAQAEDYSQLPGEDHILEHLPARLNEALLEACVEPTDLLTTLSNMLPVRLATAMMVPYTLPLESALSFTIRLLEWLPDVPEDIRWMKEQTGSICQYLVMRAKRKLGRHLPSRLPEQVELRRVQSLPSVPLSCAAYREALPGWMRNNLSLGDALAKWEECQRQLLLGLFCTNVAFPPEALRMRAPADPAPAPADPASPQHQLAGPAPLLSTPAPEARPVIGALGL [PNPLA2] | -0.911 | 1.32 |  |  |
| MWAFSELPMPLLINLIVSLLGFVATVTLIPAFRGHFIAARLCGQDLNKTSRQQIPESQGVISGAVFLIILFCFIPFPFLNCFVKEQCKAFPHHEFVALIGALLAICCMIFLGFADDVLNLRWRHKLLLPTAASLPLLMVYFTNFGNTTIVVPKPFRPILGLHLDLGILYYVYMGLLAVFCTNAINILAGINGLEAGQSLVISASIIVFNLVELEGDCRDDHVFSLYFMIPFFFTTLGLLYHNWYPSRVFVGDTFCYFAGMTFAVVGILGHFSKTMLLFFMPQVFNFLYSLPQLLHIIPCPRHRIPRLNIKTGKLEMSYSKFKTKSLSFLGTFILKVAESLQLVTVHQSETEDGEFTECNNMTLINLLLKVLGPIHERNLTLLLLLLQILGSAITFSIRYQLVRLFYDV [DPAGT1] | -0.912 | -2.08 |  |  |
| MRVLVGGGTGFIGTALTQLLNARGHEVTLVSRKPGPGRITWDELAASGLPSCDAAVNLAGENILNPLRRWNETFQKEVIGSRLETTQLLAKAITKAPQPPKAWVLVTGVAYYQPSLTAEYDEDSPGGDFDFFSNLVTKWEAAARLPGDSTRQVVVRSGVVLGRGGGAMGHMLLPFRLGLGGPIGSGHQFFPWIHIGDLAGILTHALEANHVHGVLNGVAPSSATNAEFAQTLGAALGRRAFIPLPSAVVQAVFGRQRAIMLLEGQKVIPQRTLATGYQYSFPELGAALKEIVA [SDR39U1] | -0.328 | -0.0339 |  |  |
| MSLRCGDAARTLGPRVFGRYFCSPVRPLSSLPDKKKELLQNGPDLQDFVSGDLADRSTWDEYKGNLKRQKGERLRLPPWLKTEIPMGKNYNKLKNTLRNLNLHTVCEEARCPNIGECWGGGEYATATATIMLMGDTCTRGCRFCSVKTARNPPPLDASEPYNTAKAIAEWGLDYVVLTSVDRDDMPDGGAEHIAKTVSYLKERNPKILVECLTPDFRGDLKAIEKVALSGLDVYAHNVETVPELQSKVRDPRANFDQSLRVLKHAKKVQPDVISKTSIMLGLGENDEQVYATMKALREADVDCLTLGQYMQPTRRHLKVEEYITPEKFKYWEKVGNELGFHYTASGPLVRSSYKAGEFFLKNLVAKRKTKDL [LIAS] |  |  | 52.1 | 53.4 |
| MAGLEVLFASAAPAITCRQDALVCFLHWEVVTHGYFGLGVGDQPGPNDKKSELLPAGWNNNKDLYVLRYEYKDGSRKLLVKAITVESSMILNVLEYGSQQVADLTLNLDDYIDAEHLGDFHRTYKNSEELRSRIVSGIITPIHEQWEKANVSSPHREFPPATAREVDPLRIPPHHPHTSRQPPWCDPLGPFVVGGEDLDPFGPRRGGMIVDPLRSGFPRALIDPSSGLPNRLPPGAVPPGARFDPFGPIGTSPPGPNPDHLPPPGYDDMYL [PSMF1] |  |  |  | 53 |
